In PMC8457056, “Remodeling of the Fibrillation Pathway of α‐Synuclein by Interaction with Antimicrobial Peptide LL‐III” (Chemistry (Weinheim an Der Bergstrasse, Germany), 2021) one finds Ka data, which are given here for 2 molecules.

The assay deals with α‐Synuclein (human, UniProt P37840 1-140). Description: fluorescence polarisation. As to conditions: both partners purified. For orientation: Fluorescence polarisation rises when a labelled molecule tumbles more slowly, as on binding a larger partner.

Where no end group is shown, it is not given here. carboxyfluorescein = carboxyfluorescein at the N-terminus

H-VNWKKILGKIIKVVK-NH2 [antimicrobial peptide LL‐III] showed a Ka of 37000 M⁻¹.
For carboxyfluorescein-VNWKKILGKIIKVVK [carboxyfluorescein‐labeled LL‐III] the value was 19000 M⁻¹.
